Key:
c-Src = c-Src (UniProt P12931 2-536); test: co-immunoprecipitation with anti-RAD51AP1 antibody from T47D cell lysate, immunoblot
Procedure: (§1) To identify the key molecules important for RAD51AP1-DYRK4 to modulate MEK signaling, the RAD51AP1 interactants were investigated with the Entrez Gene database. […] Immuno-precipitation was performed using the RAD51AP1 antibody in the T47D cells overexpressing E9-E2 or wtRAD51AP1.
(§2) Immunoprecipitation. The cells were seeded in 10 cm² dishes with 200 ng/ml for one week. After one week doxycycline treatment, doxycycline-induced T47D OE cells were freshly harvested and lysed in NETN-400 buffer ([…] Tris-HCL, pH 8.0, […] NaCl, 1 mM EDTA, and 0.5% Nonidet P-40) for 25 minutes on ice and then centrifugated for 25 minutes at 14,500 rpm. The supernatants were diluted with the same buffer without NaCl (NETN-0) to obtain a final concentration of NaCl at 150 mM and incubated with indicated antibodies for 2 hours at 4° C., and then added protein-G beads (Santa Cruz) overnight. The beads were washed three times with cell lysis buffer and the precipitated proteins were subjected to western blot analysis.

integrin β1 = target: T1, integrin β1 (UniProt P05556 21-798); test: as above
T1 construct: also called ITGB1; integrin B1
Procedure: as §1, §2

T1 sequence (P05556 21-798 limits assumed): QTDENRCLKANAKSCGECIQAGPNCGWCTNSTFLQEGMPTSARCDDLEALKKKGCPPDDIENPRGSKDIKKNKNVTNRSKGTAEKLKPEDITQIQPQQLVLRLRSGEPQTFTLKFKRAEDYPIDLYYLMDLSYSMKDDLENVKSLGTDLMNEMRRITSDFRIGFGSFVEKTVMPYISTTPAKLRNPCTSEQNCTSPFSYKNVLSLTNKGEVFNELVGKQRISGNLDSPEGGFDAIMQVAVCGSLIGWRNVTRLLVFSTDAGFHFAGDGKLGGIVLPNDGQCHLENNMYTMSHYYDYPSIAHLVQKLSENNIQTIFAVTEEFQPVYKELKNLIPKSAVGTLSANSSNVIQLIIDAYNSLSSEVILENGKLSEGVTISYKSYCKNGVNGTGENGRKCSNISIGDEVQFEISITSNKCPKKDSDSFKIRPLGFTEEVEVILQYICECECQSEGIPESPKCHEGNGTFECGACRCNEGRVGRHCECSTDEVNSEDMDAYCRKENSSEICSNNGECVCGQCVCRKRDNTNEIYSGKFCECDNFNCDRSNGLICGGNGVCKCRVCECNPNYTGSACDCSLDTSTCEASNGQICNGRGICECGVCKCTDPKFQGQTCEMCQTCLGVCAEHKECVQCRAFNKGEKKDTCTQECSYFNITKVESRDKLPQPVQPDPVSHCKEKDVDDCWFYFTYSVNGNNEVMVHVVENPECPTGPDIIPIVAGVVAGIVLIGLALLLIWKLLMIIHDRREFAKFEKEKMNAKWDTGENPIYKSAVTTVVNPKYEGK

B1: RAD51AP1-DYRK4 fusion protein (E9-E2 variant) (other)
chain: MVRPVRHKKPVNYSQFDHSDSDDDFVSATVPLNKKSRTAPKELKQDKPKPNLNNLRKEEIPVQEKTPKKRMALDDKLYQRDLEVALALSVKELPTVTTNVQNSQDKSIEKHGSSKIETMNKSPHISNCSVASDYLDLDKITVEDDVGGVQGKRKAASKAAAQQRKILLEGSDGDSANDTEPDFAPGEDSEDDSDFCESEDNDEDFSMRKSKVKEIKKKEVKVKSPVEKKEKKSKSKCNALVTSVDSAPAAVKSESQSLPKKVSLSSDTTRKPLEIRSPSAESKKPKWVPPGLKWMLKSQGNVI
notes: Expressed from a doxycycline-inducible lentiviral vector in T47D cells (co-IP, western blot), or endogenous in MDAMB361 cells (western blot); also called E9-E2 protein; E9E2 fusion
binding result (c-Src): no binding
binding result (integrin β1): no binding
